# From FireProtDB (doi:10.1110/ps.9.2.387)
# Conditions: Escherichia coli (strain K12), Thermal, DSC, NaCl 100 mM, reversible: yes(>85%)
# [1] = pH 5.5, Sodium cacodylate 10 mM
# Sequence of Cold shock protein CspA wild type, P0A9X9 (P0A9X9 whole entry): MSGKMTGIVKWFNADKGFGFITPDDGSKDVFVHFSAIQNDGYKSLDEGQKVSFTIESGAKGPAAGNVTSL
substance,measurement,setting,value
"Cold shock protein CspA wild type, P0A9X9",Tm,"pH 4, Sodium acetate 10 mM",33.2 °C
same,unfolding enthalpy (calorimetric),"pH 4, Sodium acetate 10 mM",22.7 kcal/mol
same,Tm,"pH 4.5, Sodium acetate 10 mM",42.1 °C
same,unfolding enthalpy (calorimetric),"pH 4.5, Sodium acetate 10 mM",28.9 kcal/mol
same,Tm,"pH 5, Sodium acetate 10 mM",47.7 °C
same,unfolding enthalpy (calorimetric),"pH 5, Sodium acetate 10 mM",33 kcal/mol
same,Tm,[1],54.4 °C
same,unfolding enthalpy (calorimetric),[1],39.9 kcal/mol
same,Tm,"pH 6, MOPS 10 mM",54.1 °C
same,unfolding enthalpy (calorimetric),"pH 6, MOPS 10 mM",39.9 kcal/mol
same,Tm,"pH 6, PIPES 10 mM",53.1 °C
same,unfolding enthalpy (calorimetric),"pH 6, PIPES 10 mM",36.1 kcal/mol
same,Tm,"pH 6, Sodium cacodylate 10 mM",56.5 °C
same,unfolding enthalpy (calorimetric),"pH 6, Sodium cacodylate 10 mM",44.9 kcal/mol
same,Tm,"pH 6, Sodium phosphate 10 mM",55.9 °C
same,unfolding enthalpy (calorimetric),"pH 6, Sodium phosphate 10 mM",39.4 kcal/mol
same,Tm,"pH 6.5, HEPES 10 mM",56.5 °C
same,unfolding enthalpy (calorimetric),"pH 6.5, HEPES 10 mM",43.5 kcal/mol
same,Tm,"pH 6.5, MOPS 10 mM",56.1 °C
same,unfolding enthalpy (calorimetric),"pH 6.5, MOPS 10 mM",39.9 kcal/mol
same,Tm,"pH 6.5, PIPES 10 mM",55.2 °C
same,unfolding enthalpy (calorimetric),"pH 6.5, PIPES 10 mM",41.4 kcal/mol
same,Tm,"pH 6.5, Sodium citrate 10 mM",56.8 °C
same,unfolding enthalpy (calorimetric),"pH 6.5, Sodium citrate 10 mM",45.2 kcal/mol
same,Tm,"pH 6.5, Sodium phosphate 10 mM",56.1 °C
same,unfolding enthalpy (calorimetric),"pH 6.5, Sodium phosphate 10 mM",43.3 kcal/mol
same,Tm,"pH 6.5, imidazole 10 mM",53.7 °C
same,unfolding enthalpy (calorimetric),"pH 6.5, imidazole 10 mM",39.2 kcal/mol
same,Tm,"pH 7, HEPES 10 mM",57.6 °C
same,unfolding enthalpy (calorimetric),"pH 7, HEPES 10 mM",47.6 kcal/mol
same,Tm,"pH 7, MOPS 10 mM",56.4 °C
same,unfolding enthalpy (calorimetric),"pH 7, MOPS 10 mM",40.6 kcal/mol
same,Tm,"pH 7, PIPES 10 mM",55.7 °C
same,unfolding enthalpy (calorimetric),"pH 7, PIPES 10 mM",41.4 kcal/mol
same,Tm,"pH 7, Sodium cacodylate 10 mM",57 °C
same,unfolding enthalpy (calorimetric),"pH 7, Sodium cacodylate 10 mM",47.3 kcal/mol
same,Tm,"pH 7, Sodium citrate 10 mM",57 °C
same,unfolding enthalpy (calorimetric),"pH 7, Sodium citrate 10 mM",46.4 kcal/mol
same,Tm,"pH 7, Sodium phosphate 10 mM",57 °C
same,unfolding enthalpy (calorimetric),"pH 7, Sodium phosphate 10 mM",43.3 kcal/mol
same,Tm,"pH 7, imidazole 10 mM",55.8 °C
same,unfolding enthalpy (calorimetric),"pH 7, imidazole 10 mM",40.1 kcal/mol
same,Tm,"pH 7.5, HEPES 10 mM",57.8 °C
same,unfolding enthalpy (calorimetric),"pH 7.5, HEPES 10 mM",49 kcal/mol
same,Tm,"pH 7.5, MOPS 10 mM",56.2 °C
same,unfolding enthalpy (calorimetric),"pH 7.5, MOPS 10 mM",41.4 kcal/mol
same,Tm,"pH 7.5, PIPES 10 mM",56 °C
same,unfolding enthalpy (calorimetric),"pH 7.5, PIPES 10 mM",42.3 kcal/mol
same,Tm,"pH 7.5, Sodium citrate 10 mM",57.3 °C
same,unfolding enthalpy (calorimetric),"pH 7.5, Sodium citrate 10 mM",48.3 kcal/mol
same,Tm,"pH 7.5, Sodium phosphate 10 mM",57.1 °C
same,unfolding enthalpy (calorimetric),"pH 7.5, Sodium phosphate 10 mM",46.9 kcal/mol
same,Tm,"pH 7.5, imidazole 10 mM",55.9 °C
same,unfolding enthalpy (calorimetric),"pH 7.5, imidazole 10 mM",39 kcal/mol
same,Tm,"pH 8, MOPS 10 mM",57.1 °C
same,unfolding enthalpy (calorimetric),"pH 8, MOPS 10 mM",42.5 kcal/mol
same,Tm,"pH 8, imidazole 10 mM",56.8 °C
same,unfolding enthalpy (calorimetric),"pH 8, imidazole 10 mM",38.2 kcal/mol
same,Tm,"pH 8.5, HEPES 10 mM",56.5 °C
same,unfolding enthalpy (calorimetric),"pH 8.5, HEPES 10 mM",42.1 kcal/mol
same,Tm,"pH 8.5, Sodium borate 10 mM",57.7 °C
same,unfolding enthalpy (calorimetric),"pH 8.5, Sodium borate 10 mM",44.5 kcal/mol
same,Tm,"pH 8.7, Sodium borate 10 mM",57.6 °C
same,unfolding enthalpy (calorimetric),"pH 8.7, Sodium borate 10 mM",43.7 kcal/mol
